Results taken from PMC11885821, “Structures of complete HIV-1 TAR RNA portray a dynamic platform poised for protein binding and structural remodeling”.
Where a chain is given by its changes, count along the chain named. In names and notes the source's numbering stands.

How the values were obtained:
[1] = target: PKR (unphosphorylated) (Homo sapiens) (UniProt P19525); experiment: FP
[2] = target: PKR dsRBMs (Homo sapiens) (UniProt P19525); experiment: FP
PKR dsRBMs [3] = target: T1, PKR dsRBMs (Homo sapiens, UniProt P19525 9-167); experiment: FP; conditions: protein: recombinant, tags: tag cleaved by TEV, hairpin
T1 sequence (P19525 9-167): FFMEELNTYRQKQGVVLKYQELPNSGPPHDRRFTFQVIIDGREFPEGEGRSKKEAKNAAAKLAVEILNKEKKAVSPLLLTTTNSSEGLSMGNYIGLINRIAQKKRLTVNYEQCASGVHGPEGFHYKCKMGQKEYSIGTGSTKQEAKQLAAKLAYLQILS

PKR (unphosphorylated) [4] = target: T2, PKR (unphosphorylated) (Homo sapiens, UniProt P19525 1-551); experiment: FP; conditions: protein: recombinant, tags: His tag (HisTrap purified), hairpin
T2 sequence (P19525 whole entry): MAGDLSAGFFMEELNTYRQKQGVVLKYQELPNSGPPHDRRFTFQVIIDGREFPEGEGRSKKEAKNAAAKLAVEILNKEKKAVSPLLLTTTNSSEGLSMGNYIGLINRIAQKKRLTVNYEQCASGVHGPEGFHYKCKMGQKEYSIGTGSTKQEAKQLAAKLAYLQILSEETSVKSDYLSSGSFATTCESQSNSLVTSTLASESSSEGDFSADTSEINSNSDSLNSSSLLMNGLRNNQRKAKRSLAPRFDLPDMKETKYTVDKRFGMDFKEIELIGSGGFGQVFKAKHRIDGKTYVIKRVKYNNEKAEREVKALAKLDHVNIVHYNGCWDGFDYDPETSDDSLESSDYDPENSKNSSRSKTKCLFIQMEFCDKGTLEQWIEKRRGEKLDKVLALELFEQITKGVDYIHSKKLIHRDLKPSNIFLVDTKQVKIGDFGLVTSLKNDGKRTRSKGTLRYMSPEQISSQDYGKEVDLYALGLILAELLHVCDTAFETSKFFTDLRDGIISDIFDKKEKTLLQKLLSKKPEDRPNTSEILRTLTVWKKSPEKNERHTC

Tat44-60 WT [5] = target: T3, Tat44-60 WT (HIV-1, UniProt P04608); experiment: ITC; 1 mM Mg2+; conditions: label: 3' FAM in FP; none in ITC and SEC-MALS; hairpin, blunt 2 G-C end; bulges C5, A17, U23-C24-U25
T3 chain: GISYGRKKRRQRRRAHQ

Tat44-60 WT [6] = target: T3, Tat44-60 WT; experiment: 2AP fluorescence lifetime; conditions: label: 2AP; hairpin
PKR dsRBMs [7] = target: T1, PKR dsRBMs; experiment: 2AP fluorescence lifetime; conditions: protein: recombinant; tags: tag cleaved by TEV; label: 2AP; hairpin
NC (nucleocapsid) = NC (nucleocapsid) (HIV-1, UniProt P04591 378-432); experiment: 2AP fluorescence lifetime; conditions: protein: recombinant; tags: MBP tag cleaved by PreScission; label: 2AP; hairpin
PKR (unphosphorylated) [8] = target: T2, PKR (unphosphorylated); experiment: FP; printed Kd 0.02 uM conflicts with log Ka and with text (3-fold weaker); conditions: protein: recombinant; tags: His tag (HisTrap purified); label: 3' FAM; hairpin
Tat44-60 WT [9] = target: T3, Tat44-60 WT; experiment: crystal structure; peptide soaked into TAR-I crystals, 2.7 A; FP: 25 mM Tris-HCl pH 7.5, 50 mM NaCl, 50 mM KCl, 2 mM MgCl2, 21 C, 5 nM RNA; ITC: 25 mM Tris-HCl pH 7.5, 100 mM NaCl, 1 mM MgCl2, 25 C; conditions: hairpin, GAAA tetraloop
[10] = label: 3' FAM in FP, none in ITC and SEC-MALS, blunt 2 G-C end, bulges C5, A17, U23-C24-U25

PKR dsRBMs (Homo sapiens), sequence (P19525 9-167): as the sequence (P19525 9-167) above
PKR (unphosphorylated) (Homo sapiens), sequence (P19525 whole entry): as the sequence (P19525 whole entry) above

TARΔ23-39
Kd [1]: 54 nM
Kd [2]: 190 nM

VA-I RNA
Kd [1]: 40 nM
Kd [2]: 220 nM

CUCUGGUUAGACCAGAUCUGAGCCUGGGAGCUCUCUGGCUAACUAGGG (structured_RNA) [TARΔ4bp]
Kd (PKR dsRBMs [3]; label: 3' FAM): 290 ± 20 nM
Kd (PKR (unphosphorylated) [4]; label: 3' FAM): 50 ± 3 nM

CCAGAUCUGAGCCUGGGAGCUCUCUGG (structured_RNA) [TARΔ14bp]
Kd (PKR dsRBMs [3]; label: 3' FAM): 2280 ± 700 nM
Kd (PKR (unphosphorylated) [4]; label: 3' FAM): 1230 ± 1000 nM

GUUAGACCAGAUCUGAGCCUGGGAGCUCUCUGGCUAAC (structured_RNA) [TARΔ9bp]
Kd (PKR dsRBMs [3]; label: 3' FAM): 1900 ± 700 nM
Kd (PKR (unphosphorylated) [4]; label: 3' FAM): 130 ± 40 nM

B1: TAR2GC (WT) (structured_RNA)
RNA: GGUCUCUCUGGUUAGACCAGAUCUGAGCCUGGGAGCUCUCUGGCUAACUAGGGAACC
Kd (PKR dsRBMs [3]; [10]): 120 ± 10 nM
Kd (PKR (unphosphorylated) [4]; [10]): 35 ± 5 nM
Kd (Tat44-60 WT [5]): 160 ± 100 nM

B2: 2AP20 TAR2GC (structured_RNA)
RNA: B1 RNA
modifications: 2-aminopurine at A20
binding result (Tat44-60 WT [6]): binds
binding result (PKR dsRBMs [7]): binds
binding result (NC (nucleocapsid)): binds

B3: TAR A48U/C49G/U50A (structured_RNA)
RNA: B1 RNA with A47U, C48G, U49A
Kd (PKR dsRBMs [3]; label: 3' FAM): 360 ± 120 nM
Ka (PKR (unphosphorylated) [8]): 7.02 ± 0.11 log10 M-1

B4: 2AP17 TAR2GC (structured_RNA)
RNA: B1 RNA
modifications: 2-aminopurine at A17
binding result (Tat44-60 WT [6]): binds
binding result (NC (nucleocapsid)): binds

B5: 2AP24 TAR2GC (structured_RNA)
RNA: B1 RNA with C23A
modifications: 2-aminopurine at C24
binding result (Tat44-60 WT [6]): binds
binding result (PKR dsRBMs [7]): binds
binding result (NC (nucleocapsid)): binds

B6: TAR GAAA (TAR-I) (structured_RNA)
RNA: B1 RNA with U30G, G31A, G32A, G33A
binding result (Tat44-60 WT [9]): binds

B7: 2AP3 TAR2GC C57U (structured_RNA)
RNA: B1 RNA with G2A, C56U
modifications: 2-aminopurine at G3; C57U
binding result (Tat44-60 WT [6]): binds
binding result (PKR dsRBMs [7]): binds
binding result (NC (nucleocapsid)): binds
